{
  "source": "patent US20240218071A1",
  "about": "(ANHUI BIOX VISION BIOLOGICAL TECHNOLOGY, published 2024)",
  "binders": {"B1": {"name": "C8 clone anti-CD40 Fab molecule (Fab, V domains shown)", "VH": "EVQLLESGGGLVRPGGSLRLSCAASGFTFGSYEMNWVRQAPGKGLEWVSYISSSGETTDYADSVKGRFTVSRDNSKNLLYLQMNSLRAEDTAVYYCARDVFFFDSSGDNGAYGMDVWGQGTMVTVSS", "VL": "DIQLTQSPSSLTASVGDRVTITCRSSQGIRSSLAWYQQKPGKPPKLLIYGASSLEGGVPSRFSGSGSGTDFTLTISSLQPEDFATYYCQQLNSFPSTFGQGTKLEIK", "notes": "Expressed as a Fab fragment in CHO-K cells; also called C8 Fab; C8 clone Fab"}, "B2": {"name": "C8 clone anti-CD40 full-length antibody (antibody, human IgG1, kappa, V domains shown)", "VH": "B1 VH", "VL": "DIQLTQSPSSLTASVGDRVTITCRSSQGIRSSLAWYQQKPGKPPKLLIYGASSLEGGVPSRFSGSGSGTDFTLTISSLQPEDFATYYCQQLNSFPSTFGQGTKLEIKR", "notes": "also called C8-WT; C8 parent antibody"}, "B3": {"name": "Dacetuzumab (antibody, V domains shown)", "VH": "EVQLVESGGGLVQPGGSLRLSCAASGYSFTGYYIHWVRQAPGKGLEWVARVIPNAGGTSYNQKFKGRFTLSVDNSKNTAYLQMNSLRAEDTAVYYCAREGIYWWGQGTLVTVSS", "VL": "DIQMTQSPSSLSASVGDRVTITCRSSQSLVHSNGNTFLHWYQQKPGKAPKLLIYTVSNRFSGVPSRFSGSGSGTDFTLTISSLQPEDFATYFCSQTTHVPWTFGQGTKVEIKR"}},
  "key": {"[1]": {"target": "T1, cynomolgus monkey CD40 expressed on the cell surface (cynomolgus monkey, UniProt G7PG38 21-278)", "T1 construct": "also called CHO-K-cynoCD40 cells", "T1 sequence (G7PG38 entry or part of it limits assumed)": "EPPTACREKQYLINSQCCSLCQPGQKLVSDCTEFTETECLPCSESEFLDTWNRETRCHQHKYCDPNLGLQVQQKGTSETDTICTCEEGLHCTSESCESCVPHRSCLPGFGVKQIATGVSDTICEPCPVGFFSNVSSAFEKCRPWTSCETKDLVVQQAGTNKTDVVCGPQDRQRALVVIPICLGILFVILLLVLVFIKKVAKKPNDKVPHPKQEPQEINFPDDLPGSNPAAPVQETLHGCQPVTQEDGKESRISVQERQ", "test": "flow cytometry on CHO-K-cynoCD40 cells, APC anti-human F(ab')2 secondary antibody", "method": "The CHO-K-huCD40 cells or CHO-K-cynoCD40 cells were seeded into a 96-well plate at 1.0×10⁵ cells/well, and diluted C8 anti-CD40 Fab candidate molecules were added. […] Then, the cells were washed, and the binding of the C8 anti-CD40 Fab candidate molecules to CD40 molecules expressed on the cell surface was detected by flow cytometry (Beckman Coulter)."}, "[2]": {"target": "T2, P17-Fc fusion protein (human CD40 extracellular domain fused to human IgG1 Fc) (human, UniProt P25942 21-193, limits assumed)", "T2 construct": "CD40 ECD at the N-terminus of the human IgG1 Fc; expressed in CHO-K cells; also called CD40 ECD-Fc fusion protein; CD40 antigen P17-Fc; not shown: human IgG1 Fc fragment", "T2 sequence (P25942 21-193 limits assumed)": "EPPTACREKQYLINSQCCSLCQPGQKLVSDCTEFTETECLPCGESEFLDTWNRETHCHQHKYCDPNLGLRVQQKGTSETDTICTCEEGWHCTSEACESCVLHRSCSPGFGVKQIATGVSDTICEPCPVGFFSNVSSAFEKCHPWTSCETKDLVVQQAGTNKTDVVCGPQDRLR", "test": "ELISA of Fab on P17-Fc"}, "[3]": {"target": "T3, human CD40 expressed on the cell surface (human, UniProt P25942 21-277)", "T3 construct": "whole, on cells; Used for transfected CHO-K cells, for transfected Jurkat reporter cells (Met1-Gln277) and for the natural CD40 on Ramos cells and iDC; also called CHO-K-huCD40 cells; CHO cells expressing CD40", "T3 sequence (P25942 21-277)": "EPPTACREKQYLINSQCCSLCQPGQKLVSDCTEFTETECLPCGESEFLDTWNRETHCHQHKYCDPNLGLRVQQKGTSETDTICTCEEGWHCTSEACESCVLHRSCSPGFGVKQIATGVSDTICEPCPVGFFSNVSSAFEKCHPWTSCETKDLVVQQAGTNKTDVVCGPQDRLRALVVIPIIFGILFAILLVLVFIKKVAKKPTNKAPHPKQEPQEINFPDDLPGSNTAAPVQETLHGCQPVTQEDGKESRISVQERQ", "test": "flow cytometry on CHO-K-huCD40 cells, APC anti-human IgG Fc secondary antibody", "method": "(§1) To confirm the binding activity and cross-reactivity of the full-length anti-CD40 antibody prepared in example 1.4 of the present invention to CD40, CHO-K-huCD40 cells or CHO-K-cynoCD40 cells were seeded into a 96-well plate at 1.0×10⁵ cells/well. 100 μL of diluted anti-CD40 candidate antibody prepared in example 1.4 was added to the 96-well plate. […] Then, the cells were washed, and the binding of the full-length anti-CD40 antibody to CD40 molecules expressed on the cell was detected by flow cytometry."}, "[4]": {"target": "T1, cynomolgus monkey CD40 expressed on the …", "test": "flow cytometry on CHO-K-cynoCD40 cells, APC anti-human IgG Fc secondary antibody", "method": "as §1"}, "[5]": {"target": "T4, full-length mouse CD40 expressed on CHO-K cells (mouse, UniProt P27512 20-289)", "T4 construct": "whole, on cells; also called CHO-K-mouseCD40 cells; mouse CD40 antigen", "T4 sequence (P27512 20-289)": "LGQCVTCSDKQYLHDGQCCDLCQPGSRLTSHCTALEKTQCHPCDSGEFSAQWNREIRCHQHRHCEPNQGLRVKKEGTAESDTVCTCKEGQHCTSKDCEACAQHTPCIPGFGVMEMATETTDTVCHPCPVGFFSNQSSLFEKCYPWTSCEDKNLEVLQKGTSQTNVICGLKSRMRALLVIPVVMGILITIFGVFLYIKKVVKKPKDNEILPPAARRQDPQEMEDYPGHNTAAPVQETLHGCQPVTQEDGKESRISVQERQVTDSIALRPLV", "test": "flow cytometry on CHO-K-mouseCD40 cells, FITC anti-human IgG Fc secondary antibody", "method": "Similarly to example 1.3, CHO-K cells expressing full-length mouse CD40 (Uniprot: P27512) (hereinafter also referred to as “CHO-K-mouseCD40 cells”) were prepared. The cross-reactivity of the candidate C8 full-length anti-CD40 antibody prepared in example 1.4 to mouse CD40 was tested using the CHO-K-mouseCD40 cells. The CHO-K-mouseCD40 cells were seeded into a 96-well plate at 1.0×10⁵ cells/well. 100 μL of diluted anti-CD40 candidate antibody and two control antibodies (Dacetuzumab and APX005) were added to the 96-well plate, respectively. […] The cells were then washed and tested by flow cytometry."}, "[6]": {"target": "T3, human CD40 expressed on the cell surface", "test": "flow cytometry on CHO-K-huCD40 cells, APC anti-human IgG secondary antibody", "method": "(§2) 100 μL of diluted anti-CD40 candidate antibody prepared in example 4.3 was added to the 96-well plate. After incubation at 4° C. for 30 min, the cells were washed 5 times with a FACS buffer (PBS+5% FBS+2% BSA), added with 100 μL of APC-labeled anti-human IgG secondary antibody, and then incubated at 4° C. for 30 min. The cells were then washed and tested by flow cytometry."}, "[7]": {"target": "T3, human CD40 expressed on the cell surface", "test": "flow cytometry on CHO-K-huCD40 cells, APC anti-human IgG secondary antibody", "method": "as §2", "remark": "listed apart in the source"}, "[8]": {"target": "T5, P17-His protein (human CD40 antigen) (human, UniProt P25942 21-193, limits assumed)", "T5 construct": "also called human CD40 antigen (P17-His)", "T5 sequence (P25942 other isoform, or with tags, fused parts or gaps limits assumed)": "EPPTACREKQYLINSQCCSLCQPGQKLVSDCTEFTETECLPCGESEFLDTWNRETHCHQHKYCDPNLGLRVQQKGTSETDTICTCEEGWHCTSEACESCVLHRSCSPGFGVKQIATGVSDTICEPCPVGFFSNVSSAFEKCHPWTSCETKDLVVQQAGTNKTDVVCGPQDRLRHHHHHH", "test": "BLI (Fortebio Octet RED96), antibody on Protein A sensor, P17-His 5-40 nM", "method": "In this example, the affinity of C8 parent antibody (C8-WT) and affinity variant antibody for human CD40 antigen (P17-His) was detected using an Fortebio Octet RED96 instrument.\nMaterial preparation: 1 g of BSA and 500 μL of Tween 20 were added to 1000 mL of 1×PBS and mixed uniformly. The mixture was filtered, and then subpackaged and stored. 0.1 mL of glycine solution (0.1 M, pH 2.0) was pipetted, 0.9 mL of ultrapure water was added, and the mixture was mixed uniformly. The antibodies were diluted to 10 μg/mL with a KB buffer, and the antigens were diluted with a KB buffer to serial concentration gradients, i.e., 40 nM, 20 nM, 10 nM, 5 nM and 0 nM.\nExperiment procedure: The sample plate (GreinierBio, PN655209) was tested after a sensor (Protein A sensor) was pre-wetted in the dark for at least 10 min, and after confirming the accuracy, the test was performed according to the preset programs. KB buffer was added at 200 μL/well to the wells of columns 1, 10 and 12 of sample plate 1; the glycine solution (0.01 M, pH 2.0) was added to the wells of column 11; the prepared sample solution was added to the wells of columns 2-8 (5 replicate wells for one sample); and P17-His was sequentially added to the wells of column 9 in a descending order of the concentration."}},
  "data": [
    {"binder": "B1", "values": [
      {"measurement": "binding result", "setting": "[1]", "result": "binds"},
      {"measurement": "EC50", "setting": "[2]", "result": "~0.476", "unit": "µg/mL"}
    ]},
    {"binder": "B2", "values": [
      {"measurement": "EC50 (read off the curve)", "setting": "[3]", "result": "~0.8", "unit": "µg/mL"},
      {"measurement": "binding result", "setting": "[4]", "result": "binds"},
      {"measurement": "binding result", "setting": "[5]", "result": "binds"},
      {"measurement": "EC50 (read off the curve)", "setting": "[6]", "result": "~0.8", "unit": "µg/mL"},
      {"measurement": "EC50 (read off the curve)", "setting": "[7]", "result": "~0.9", "unit": "µg/mL"},
      {"measurement": "Kd", "setting": "[8]", "result": 19.3, "unit": "nM"},
      {"measurement": "koff", "setting": "[8]", "result": 0.0164, "unit": "s⁻¹"},
      {"measurement": "kon", "setting": "[8]", "result": 853000, "unit": "M⁻¹ s⁻¹"}
    ]},
    {"binder": "B3", "values": [
      {"measurement": "EC50 (read off the curve)", "setting": "[3]", "result": "~0.8", "unit": "µg/mL"}
    ]}
  ]
}
